The target of assay [1] is T1, 食蟹猴CD38胞外段Flag标签蛋白 cyno-CD38-ECD-Flag (cynomolgus monkey, UniProt Q5VAN0 44-301).
T1 construct: range 44-301; No linker between CD38 and the tag is stated; also called cyno-CD38-Flag
T1 sequence: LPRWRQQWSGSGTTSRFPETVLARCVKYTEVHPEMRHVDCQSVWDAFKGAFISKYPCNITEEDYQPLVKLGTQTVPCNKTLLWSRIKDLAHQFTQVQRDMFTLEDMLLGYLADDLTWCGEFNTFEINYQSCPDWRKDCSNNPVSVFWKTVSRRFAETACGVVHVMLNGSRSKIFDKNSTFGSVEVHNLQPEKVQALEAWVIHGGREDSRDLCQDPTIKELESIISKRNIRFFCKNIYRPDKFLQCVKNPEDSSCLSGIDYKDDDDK
The experiment in a line: SPR, Biacore T200; antibody captured on Protein A CM5 chip, cyno-CD38-Flag as analyte. In general terms: In SPR one partner is held on a chip, and binding of the other changes the refractive index at the surface.

The target in assay [2] is T2, 人CD38胞外段Flag标签蛋白 hCD38-ECD-Flag (human, UniProt P28907 43-300).
T2 construct: range 43-300; No linker between CD38 and the tag is stated; also called hCD38-Flag
T2 sequence: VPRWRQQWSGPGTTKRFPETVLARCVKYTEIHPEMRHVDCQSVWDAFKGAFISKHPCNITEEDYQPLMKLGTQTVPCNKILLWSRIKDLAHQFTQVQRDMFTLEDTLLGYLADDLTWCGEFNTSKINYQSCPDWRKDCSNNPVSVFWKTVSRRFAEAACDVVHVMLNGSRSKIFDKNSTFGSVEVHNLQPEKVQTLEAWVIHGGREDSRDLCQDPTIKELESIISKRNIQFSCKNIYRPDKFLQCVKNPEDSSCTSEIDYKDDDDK
As to the kind of experiment: SPR, Biacore T200; antibody captured on Protein A CM5 chip, hCD38-Flag as analyte.

B1: 人源化抗人CD38单克隆抗体145H (antibody, human IgG1, kappa, V domains shown)
VH: QVQLVQSGAEVKKPGASVKVSCKASGYTFTNYLIDWVRQAPGQGLEWIGLINPGSGSTKYNEKFKGRVTLTADKSTSTAYMELSSLRSEDTAVYYCAKTGTLPYWGQGTLVTVSS
VL: DIQMTQSPSSLSASVGDRVTITCKASQNVGTSVAWYQQKPGKAPKLLIYSTSYRSSGVPSRFSGSGSGTDFTLTISSLQPEDFATYYCQQYGSYPLTFGQGTKVEIKR
notes: also called 145号抗体的人源化抗体
Turning to B1, in assay [1], the Kd came to 40.2 nM, the koff turned out to be 0.00393 s⁻¹ and the kon came out at 97800 M⁻¹ s⁻¹. In assay [2], this molecule gave a Kd of 3.22 nM, a koff of 0.00198 s⁻¹ and a kon of 612000 M⁻¹ s⁻¹.

B2: 人源化抗人CD38单克隆抗体105H (antibody, human IgG1, kappa, V domains shown)
VH: QVQLVQSGAEVKKPGASVKVSCKASGYTFTSYWMHWVRQAPGQGLEWIGHINPSSGYSEYSQKFKDRATLTADKSTSTAYMELSSLRSEDTAVYYCEIYYYVSRYVGDSWGQGTLVTVSS
VL: DIQMTQSPSSLSASVGDRVTITCRASQEISGYLSWLQQKPGKTIKRLIYAASTLDSGVPSRFSGSRSGSDFTLTISSLQPEDFATYYCLQYDSYPLTFGQGTKVEIKR
notes: Humanized IgG1; also called 105-Humanization; 105号抗体的人源化抗体
As to B2, in assay [1], the Kd came out at 3.4 nM, the koff turned out to be 0.000208 s⁻¹ and the kon came out at 61100 M⁻¹ s⁻¹. In assay [2], binding was put at a Kd of 32.8 nM, the koff is 0.000975 s⁻¹ and the kon is 29800 M⁻¹ s⁻¹.

B3: 人源化抗人CD38单克隆抗体57H (antibody, human IgG1, kappa, V domains shown)
VH: EVQLVESGGGLVQPGGSLRLSCAASGFTFSSFGMHWVRQAPGKGLEWVAYIGGDSNIIYYADTVKGRFTISRDNSKNTLYLQMNSLRAEDTAVYYCAKSHDYTMDYWGQGTLVTVSS
VL: DIVMTQSPSSLAVSLGERVTITCKSSQSLLYSTNQKNYLAWFQQKPGQSPKLLIYWASTRESGVPDRFSGSGSGTDFTLTISSLQAEDVAVYYCQRYYNYPYTFGQGTKVEIKR
notes: also called 57号抗体的人源化抗体
In assay [1], B3 came in with a dissociation constant (Kd) of 1.68 nM, a koff of 9.2e-05 s⁻¹ and a kon of 54900 M⁻¹ s⁻¹. In assay [2], this molecule showed a Kd of 0.382 nM, a koff of 0.000101 s⁻¹ and an on-rate constant (kon) of 264000 M⁻¹ s⁻¹.

B4: 人源化抗人CD38单克隆抗体116H (antibody, human IgG1, kappa, V domains shown)
VH: QVTLKESGPALVKPTQTLTLTCTLSGFSLSTSRMGVGWIRQPPGKGLEWLAHIWWDDDKRYNPALKSRLTISKDTSSNQVFLKIASVDKEDTATYYCGRIEVGRGAWFAYWGQGTLVTVSS
VL: EIVLTQSPATLSLSPGERVSVTCKASQDVVTTVAWYQQKPGQAPRTLIYSASYRYSGVPARFSGSGSGTDFTLTISSLEPEDFAVYYCQQYYTYPFTFGQGTKVEIKR
notes: also called 116号抗体的人源化抗体
As for B4, in assay [1], the affinity, expressed as Kd, was 0.405 nM; the koff is 0.000102 s⁻¹; the kon was 251000 M⁻¹ s⁻¹. In assay [2], this molecule had a Kd of 0.065 nM, a koff of 9.53e-05 s⁻¹ and a kon of 1.47e+06 M⁻¹ s⁻¹.

As usually defined, the Kd is the concentration at which binding is half-saturated. Read a low Kd as tighter binding. As a reminder, the koff is the first-order rate constant of dissociation. Higher therefore signals fast dissociation. One may read the kon as the rate constant with which the complex forms.

(Values after patent publication CN114437215A (SHANGHAI MAIJI BIOTECHNOLOGY CO LTD, dated 2022).)
